Experimental data from publication PMC10322149 (2023).

Molecular target: Shank3 (UniProt Q4ACU6 1-1730)
Assay: ITC

Sequence of Shank3 (Q4ACU6 whole entry): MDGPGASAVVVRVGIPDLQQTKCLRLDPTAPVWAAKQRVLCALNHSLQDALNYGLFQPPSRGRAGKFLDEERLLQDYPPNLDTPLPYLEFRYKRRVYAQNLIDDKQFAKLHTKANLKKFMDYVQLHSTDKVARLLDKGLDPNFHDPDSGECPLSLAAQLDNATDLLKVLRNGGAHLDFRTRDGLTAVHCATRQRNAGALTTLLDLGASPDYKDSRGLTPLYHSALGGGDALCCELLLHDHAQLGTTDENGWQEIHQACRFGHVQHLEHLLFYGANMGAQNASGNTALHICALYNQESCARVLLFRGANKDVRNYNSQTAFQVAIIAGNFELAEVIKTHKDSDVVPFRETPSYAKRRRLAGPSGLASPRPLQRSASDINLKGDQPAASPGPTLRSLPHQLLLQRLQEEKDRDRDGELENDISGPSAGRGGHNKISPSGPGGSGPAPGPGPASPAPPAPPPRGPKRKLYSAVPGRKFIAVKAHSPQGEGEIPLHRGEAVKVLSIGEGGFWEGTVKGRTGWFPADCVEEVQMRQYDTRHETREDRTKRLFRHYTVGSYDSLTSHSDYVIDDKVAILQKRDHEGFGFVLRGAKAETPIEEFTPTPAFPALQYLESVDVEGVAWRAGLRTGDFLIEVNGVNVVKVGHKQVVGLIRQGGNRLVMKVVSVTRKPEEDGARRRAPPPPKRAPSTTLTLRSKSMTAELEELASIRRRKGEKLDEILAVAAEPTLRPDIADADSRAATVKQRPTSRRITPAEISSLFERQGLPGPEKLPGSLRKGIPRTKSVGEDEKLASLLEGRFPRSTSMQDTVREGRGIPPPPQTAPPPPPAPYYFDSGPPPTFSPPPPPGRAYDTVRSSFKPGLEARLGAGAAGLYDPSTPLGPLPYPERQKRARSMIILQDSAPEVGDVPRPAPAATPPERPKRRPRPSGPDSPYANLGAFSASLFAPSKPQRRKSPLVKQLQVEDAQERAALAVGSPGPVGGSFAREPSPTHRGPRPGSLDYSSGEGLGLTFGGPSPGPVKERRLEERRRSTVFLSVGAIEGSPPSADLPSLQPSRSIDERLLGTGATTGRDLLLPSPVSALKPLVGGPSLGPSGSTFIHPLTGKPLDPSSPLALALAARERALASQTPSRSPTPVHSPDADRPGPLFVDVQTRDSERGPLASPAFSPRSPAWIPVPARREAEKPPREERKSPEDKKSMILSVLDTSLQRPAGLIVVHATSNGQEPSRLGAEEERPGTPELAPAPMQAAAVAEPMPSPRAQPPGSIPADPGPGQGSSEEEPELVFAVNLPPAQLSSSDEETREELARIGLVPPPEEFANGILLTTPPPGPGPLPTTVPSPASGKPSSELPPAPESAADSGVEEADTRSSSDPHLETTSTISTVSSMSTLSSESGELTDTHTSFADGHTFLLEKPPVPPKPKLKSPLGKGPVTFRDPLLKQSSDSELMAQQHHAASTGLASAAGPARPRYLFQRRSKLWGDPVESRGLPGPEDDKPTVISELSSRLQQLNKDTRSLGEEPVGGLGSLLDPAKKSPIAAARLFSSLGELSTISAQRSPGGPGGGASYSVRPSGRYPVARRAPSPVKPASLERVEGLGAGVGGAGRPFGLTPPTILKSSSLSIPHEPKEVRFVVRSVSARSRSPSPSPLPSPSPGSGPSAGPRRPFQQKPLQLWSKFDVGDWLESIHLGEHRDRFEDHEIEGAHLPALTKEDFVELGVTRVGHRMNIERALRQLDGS

Row | Kd [nM] | Binder
1 | 2400 | Homer1-R3E (natural protein) MGEQPIFSTRAHVFQIDPNTKKNWVPTSKHAVTVSYFYDSTENVYEIISLDGSKAIINSTITPNMTFTKTSQKFGQWADSEANTVYGLGFSSEHHLSKFAEKFQEFKEAARLAKEKSQEKMELTSTPSQESAGGDLQSPLTPESINGTDDERTPDVTQNSEPRAEPAQNALPFSHSAGDRTQGLSHASSAISKHWEAELATLKGNNAKLTAALLESTANVKQWKQQLAAYQEEAERLHKRVTELECVSSQANAVHSHKTELSQTVQELEETLKVKEEEIERLKQEIDNARELQEQRDSLTQKLQEVEIRNKDLEGQLSELEQRLEKSQSEQDAFRSNLKTLLEILDGKIFELTELRDNLAKLLECS
2 | 1000 | Homer1-WT (full-length Homer1) (natural protein) MGEQPIFSTRAHVFQIDPNTKKNWVPTSKHAVTVSYFYDSTRNVYRIISLDGSKAIINSTITPNMTFTKTSQKFGQWADSRANTVYGLGFSSEHHLSKFAEKFQEFKEAARLAKEKSQEKMELTSTPSQESAGGDLQSPLTPESINGTDDERTPDVTQNSEPRAEPAQNALPFSHSAGDRTQGLSHASSAISKHWEAELATLKGNNAKLTAALLESTANVKQWKQQLAAYQEEAERLHKRVTELECVSSQANAVHSHKTELSQTVQELEETLKVKEEEIERLKQEIDNARELQEQRDSLTQKLQEVEIRNKDLEGQLSELEQRLEKSQSEQDAFRSNLKTLLEILDGKIFELTELRDNLAKLLECS
